experiment: soluble on expression in E. coli; label from the status in PepcDB or PDB records

Sequence | soluble on expression in E. coli
MGSDKIHHHHHHMNDPESIFQRLDRLLARIEDTLPVRPQHADPAEYIALRWRKHGDTGYLQAINHPHTITLNELLNIEEQKQTLDRNTLQFVSGLPANNVLLTGARGTGKSSLIKALLNRYADRGLRMIEVDKLGLTDLPDIIEFIGQRPERFILYCDDLSFEADEPGYKALKVVLDGSISTASDNVLIYATSNRRHLIPEFMHENLATRHVDGEIHPGEATEEKISLSERFGLWLSFYPFDQEQYLEIVRHWLSQHGISRLSGPARQEALRWALARGSRNGRVARQFARDWAGQQKLAKTEPVRVDKE | not soluble
MGSDKIHHHHHHMNDYKALRTFLLAAEKRNFAQVARELDMTPAAVTRAIAALEAELGVQLFVRTTRQVSLTTDGAIFAAQLQPAVKTIEDARREVMNAHKADEGRLRISAPTWFGKAVLPPILSAFKERYPKMSFEISLSDGLVNIVDDDYDLAIRISSQPSDKFTIWRKIRVVPRILVAAPGSRFVDMQHPNELTPDDCLAYSGDSRRENWVLSDGGSSITISAGRAFSANNGEVLADIAADGAGVAMLPGFHIFEHLRTGRLVHVFKGWAPPDLWLTLYYPPYQALPPRIASFSKFFEEQVPAHMVMLD | not soluble
MGSDKIHHHHHHMNELNCLPQDAVLWGHDILPAATASLEAHGLRHPLTFTVEPLRDFHAQHVAPYLKRGAGAFTDLPPHAPDTGVRCALDACLRAEADSILALGGGSVLDAAKAVSHLHQQQTGRYLPIAAYPTTLSGSEYSHYFGVTETVGPQPFKRSYAVRETVPKVVVIDPKLLVNTPRELLLSSAIKGIDHAVEGMRRVGVDHPHAILAAAGVERFFAVLEKWPAGTDTAEALRSGQITTDDLLQLQLAAWQCYFFPASVIYGLSHRIGHILGGTYGLPHSVTSCITLAPVLQACAATYGNKLNIFCHGETTADAAPALAGRIAGVVKRLGLPYRLRDLDFDRARLAQVAALLRQNYAAEVADLGDGADAMLHTFLERLW | not soluble
MGSDKIHHHHHHMNEVLDEYRRLLSEVDHWFSRCIARSGEHIRCAEGCSECCRGLFDITLLDAALLKEGFDRLDAFTREQVLVKCRKRLAGLLRLWPEFAHPYMLNYRPEEEWELLMPDDDETPCPLLGADGRCLVYGFRPMTCRLHGLPLVDLTGEVLHDEWCTLNYVGGDPLADAGLRGEFTKIFREEVRLFRHFSERLLGQEFRELDTFIPTALLIDFTRFDWHRFAAGFSVTP | not soluble
MGSDKIHHHHHHMNFQQCRYVEAIANTGSFSEAAKKLYVTQPNLSSSIKELENDLGVQLFIRSNTGARLTDDGYDFLKYAKRILGEADLLKKRYQDNYKKSFTISSHHYDFLAIPLLEIAEKFKKDFQHFHLIETTTKKILESVLNFESDLGILYLNDDNRHILERYFKQHDLAFTPLGDFPTRIFLRKDHPLAQQKVIEKVQLKDYKQVRFRQEISGLNFDEDTLDIPENQSVFYSNDRGTIMNILCGSDAYASGLGIVNSFIKDQIVLIPLKDSKMHTLGFVSNKRKQETDITQQFITAVKNSLRTYERGTQL | not soluble
MGSDKIHHHHHHMNGQKIIGSQCITQCNPDLRITELIIPGTHDSATSTCYERYYRTQDLSIAEQLDCGVRFLDIRLRKEMVAAHREWVSDIRAEEIFEKCGEFLQKNPQEFVLMRIQNANERKDDFPEYGEALLSKVQQYKSLFYAWDHSQIVQDGNPKWPTIAQAAGKIVPIECAPPSMSINKIDGELWAANWHDNSQILLQDLWDGPTVEEKCVAIKTLIEKGREVHSDILLLNHISATNGELQYPDAYAAYLNEYSSRLWKQLAKRSFRGVQIYDFINPSICQELLRLNFD | not soluble
MGSDKIHHHHHHMNGTATGPRSSHFHWLLCALIVALPGCRDKPLREVIDRPVLFTEIADPQNASYGRFAGSIQPQHEVALGFRIAGRLATRHAEMGDRVRKGDLLATLDPSDQQNRLRARQAELSRARSAWQQLSDEQTRYQQLYTRGVGSRARLDQLNSDLRSQNALLDQASAAVQQAGDHLAYTRLTAEFDGLVTQWQTEVGQVMATGQAVVSLARPESREAVVDLPVGLLASLDDSRQIRVISQLDKQVSVIASVRQLAPQIDAGTRTQRVRLALQHIPDSLRLGSTVTVEISGNAPAFHELPASAVLARDGKDQVWVIDPSTSTLSPRAVQVLARKGGKVQVSGELHEGEKVVTAGVNGMQSGQKIRMQREVSL | not soluble
